From publication PMC7243271 (Biochemistry, 2019)

Tests used:
[1] = target: Nup358-min (residues 2147–2240 of human Nup358) (human, UniProt P49792 2147-2240); test: SEC-MALS
[2] = target: the molecule itself; test: SEC-MALS

stoichiometry N [1]	Binder	stoichiometry N [2]
1	KLC2^TPR (residues 196–480 of mouse kinesin-1 light chain 2 isoform 1) (domain or fragment, UniProt O88448 196-480, looked up) RLRTLHNLVIQYASQGRYEVAVPLCKQALEDLEKTSGHDHPDVATMLNILALVYRDQNKYKDAAHLLNDALAIREKTLGKDHPAVAATLNNLAVLYGKRGKYKEAEPLCKRALEIREKVLGKFHPDVAKQLSNLALLCQNQGKAEEVEYYYRRALEIYATRLGPDDPNVAKTKNNLASCYLKQGKYQDAETLYKEILTRAHEKEFGSVNGENKPIWMHAEEREESKDKRRDRRPMEYGSWYKACKVDSPTVNTTLRTLGALYRPEGKLEAAHTLEDCASRSRKQG	
	Nup358-KLC2-fusion protein (other, human | mouse, UniProt P49792 2147-2240, looked up) LDIPLQTPHKLVDTGRAAKLIQRAEEMKSGLKDFKTFLTNDQTKVTEEENKGSGTGAAGASDTTIKPNPENTGPTLEWDNYDLREDALDDSVSSRLRTLHNLVIQYASQGRYEVAVPLCKQALEDLEKTSGHDHPDVATMLNILALVYRDQNKYKDAAHLLNDALAIREKTLGKDHPAVAATLNNLAVLYGKRGKYKEAEPLCKRALEIREKVLGKFHPDVAKQLSNLALLCQNQGKAEEVEYYYRRALEIYATRLGPDDPNVAKTKNNLASCYLKQGKYQDAETLYKEILTRAHEKEFGSVNGENKPIWMHAEEREESKDKRRDRRPMEYGSWYKACKVDSPTVNTTLRTLGALYRPEGKLEAAHTLEDCASRSRKQG	2
